Literature values, collected in article PMC7618755.

How the values were obtained:
PD-L1 (Homo sapiens) = PD-L1 (Homo sapiens) (UniProt Q9NZQ7)
CD80 (Homo sapiens) = CD80 (Homo sapiens) (UniProt P33681)

UniProt Q9NZQ7, sequence (Q9NZQ7 19-238): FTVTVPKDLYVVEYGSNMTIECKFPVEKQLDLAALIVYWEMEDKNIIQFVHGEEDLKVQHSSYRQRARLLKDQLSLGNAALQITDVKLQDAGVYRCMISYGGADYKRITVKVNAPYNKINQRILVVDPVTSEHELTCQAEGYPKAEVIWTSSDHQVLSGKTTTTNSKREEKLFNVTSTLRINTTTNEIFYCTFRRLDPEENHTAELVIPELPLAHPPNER

- Kd (PD-L1 (Homo sapiens)): 20 µM
- Kd (CD80 (Homo sapiens)): 35 µM
Substance: CD80 (from UniProt P33681)
